Patent US12419937B2, “High concentration alpha-glucosidase compositions for the treatment of Pompe disease” (Amicus Therapeutics, Inc., priority 2012, dated 2025)
Entries after “also recorded” stand apart in the source; their conditions may differ. Where a name gives a salt, the structure may show the parent alone. Blank lines part the entries; values can stand above or below the compound they belong to.

What was measured:
[1] = Solubility of Lumizyme® in the presence of 1-DNJ-HCl and excipients (Example 12); type: physicochemical; conditions: for Protein solubility: phosphate buffer
Method: A vial of Lumizyme® containing 52.5 mg protein, 210 mg mannitol, 0.5 mg polysorbate 80, 9.9 mg Na2HPO4×7H2O, and 31.2 mg NaH2PO4×H2O was dissolved in a minimal volume of water (1 mL added) yielding 1.2 mL of protein solution. Five 240-μL aliquots (each containing 10.5 mg protein) were transferred to Amicon Ultra 0.5 mL 30 kDa cutoff centrifugal filter devices and centrifuged for 10 min at 14,000×g in an Eppendorf centrifuge to obtain about 50 μL of retentate.
The original excipients present in the composition, i.e., mannitol and polysorbate 80 were exchanged for new excipients to test protein solubility (keeping the same buffer conditions). The following excipient solutions were prepared for the exchange using the original phosphate buffer:
For exchanging excipients, 5.2 mg Na2HPO4 and 27.1 mg NaH2PO4 were dissolved in 10.3 mL water to prepare the washing/excipient exchange phosphate buffer of approximately 26 mM. A volume of 8 mL of the buffer for excipient exchange was supplemented with 160 mg/mL of the small molecule ligand (to prepare excipient 1, 3, 4 and 5 solutions), while 2 mL was supplemented with 32 mg/mL ligand for excipient 2 (100 mM Arginine). Each of the excipients were dissolved in 2 mL of this buffer at the concentrations listed above.
An excipient solution was added to each separate filter device to achieve a total volume of 0.5 mL. Each filter device was centrifuged for 15 min at 14,000×g in a bench top Eppendorf centrifuge to retain approximately 25 μL. The units were re-filled with the same excipient solution to 0.5 mL and centrifuged again (this process was repeated 2 times). This procedure efficiently replaced mannitol and polysorbate 80 with excipients described above, diluting the original constituents by about 1:1000. All filtrates for each excipient were collected and examined for any protein leaks through the filter.
Each centrifugal filter device was inverted in a clean tube, and the concentrated protein solution was collected from each filter device by centrifugation for 2 min at 1000×g. The volume of each sample was determined (66 μL, corresponding to a target protein concentration of 160 mg/mL), and it was confirmed that no visible precipitate was observable in each sample. Samples were transferred back to their respective filter devices and centrifuged for an additional 5 min. Samples were then collected by inversion of the filters into clean tubes and centrifuging for 2 min at 1000×g to yield about 37 μL of retentate (corresponding to >280 mg/mL protein based on a total initial concentration of 10.5 mg protein).
The samples were vortexed and incubated for 1 hr at room temperature to equilibrate liquid and solid phases followed by centrifugation for 10 min at 14,000×g. Again, no visible precipitate was observed. Two-three 10 μL aliquots were taken from the supernatant of each sample (depending on available volume of the liquid phase), and diluted 1:1000 in two steps. Protein concentration was measured by UV absorbance at 280 nm, and the maximum protein solubility was calculated according to a highly reproducible calibration curve. The calibration curve was prepared by dissolving 6.8 mg of Myozyme® (alglucosidase alpha) lyophilized powder (containing 1.16 mg protein) in 1.16 mL of water followed by a serial dilution in deionized water. Absorbance was measured at 280 nm in a 1 cm light-pass quartz semi-micro cuvette using 0.5 mL aliquots.

GAA KO mice [2] = assay: Repeat subcutaneous dosing of rhGAA or rhGAA + 1-DNJ co-formulation in GAA KO mice (Example 13); type: in vivo, mouse; conditions: 4 doses Lumizyme 20 mg/kg +/− 1-DNJ 30 mg/kg SQ at 3-4 day intervals, 3 days after the last dose
Method: 12-week old male GAA KO mice in groups of 7 were used in the present study. Each group of mice was administered one of the following treatments:
(2) Lumizyme® alone (20 mg/kg) delivered subcutaneously (SQ); or
(3) Co-formulated Lumizyme® (20 mg/kg) and 1-DNJ (30 mg/kg) SQ.
Each of the treatments were administered to their respective treatment group for a period of 2 weeks. The treatments were administered on Monday and Thursday of each week. SQ injections were administered between the shoulder blades of each mouse receiving treatment. A total of 4 doses was administered to each study animal. Diphenhydramine was administered intraperitoneally (IP) before the 3rd and 4th doses.
rhGAA and glycogen levels were determined according to the following sampling protocol. Blood was taken from each study animal after the 4th dose for plasma pharmacokinetic analysis. GAA activity, Western blots, and 1-DNJ levels were determined for plasma samples taken 2 and 4 hours after the last SQ dose.
Tissue samples were collected to determine rhGAA uptake 3 days following the last dose of the study (i.e., 3 days post dose 4). Tissue samples included heart, diaphragm, tongue, brain, spleen, liver, biceps, triceps, quadriceps, soleus, gastrocnemius, ventral skin and dorsal skin from the SQ injection site. Tissue samples were also collected to determine glycogen concentration 14 days following the last dose of the study (i.e., 14 days post dose 4).

[3] = target: T1, recombinant human GAA (Myozyme®) (Homo sapiens, UniProt P10253); assay: SYPRO Orange thermal stability assay (heat-induced denaturation); type: physicochemical
T1 construct: purchased Genzyme Corp
Source text: The thermal stability assay utilizes heat to induce protein denaturation, which is monitored using a SYPRO Orange dye that fluoresces upon binding to hydrophobic amino acids (which are not exposed in a folded protein).
FIG. 5 depicts the results of a thermal stability assay that utilizes heat to induce protein denaturation, which is monitored using a SYPRO Orange dye that fluoresces upon binding to hydrophobic amino acids (which are not exposed in a folded protein).
Denaturation is monitored using a SYPRO Orange dye that fluoresces upon binding to hydrophobic amino acids (which are not exposed in a folded protein).
The thermal stability was performed at pH 7.4 for two formulations, which corresponds to the pH of the ER.

GAA KO mice [4] = assay: Myozyme® tissue uptake in GAA KO mice with and without oral 1-DNJ-HCl (Example 3); type: in vivo, mouse; conditions: 10, 100, 1000 mg/kg oral 1-DNJ-HCl with 10 mg/kg Myozyme® IV weekly; up to 7 days post injection
Method: Five groups of GAA KO mice were administered one of the following formulations: […]
(2) 10 mg/kg of Myozyme® IV once per week, for up to three weeks
Tissue homogenates were generated for analysis. Enzymatic activity as determined using a 4-MUG fluorogenic substrate assay.

GAA KO mice [5] = assay: rhGAA activity in heart and diaphragm of GAA KO mouse (Example 6); type: in vivo; conditions: co-administered with 1-DNJ-HCl vs ERT monotherapy
Method: Heart and Diaphragm tissue homogenates were harvested and rhGAA activity was measured using the fluorogenic substrate (4-MUG).

rhGAA (e.g., Myozyme®) = target: T2, rhGAA (e.g., Myozyme®) (Homo sapiens, UniProt P10253); assay: rhGAA enzyme inactivation in citrate anti-coagulated whole blood at 37° C. (Examples 7, 8); type: in vitro ADME
T2 construct: purchased Genzyme Corp; host or cells: Chinese hamster ovary cell line
Method: Aliquots were collected at 0, 2, 4, 8 and 24 hrs and centrifuged to obtain plasma. These plasma samples were then diluted in potassium acetate buffer (pH 4.0) and assayed for GAA activity using the 4-methylumbeliferyl-α-glucose (4-MUG) fluorogenic substrate. The measured GAA activity for individual samples at each time point was normalized to the 0 hr and expressed as % of initial activity. Data from 4 independent experiments were analyzed to obtain the mean (and standard deviation) and plotted versus time to assess the loss of enzyme activity over this time course.
Aliquots were collected at 0, 3 and 6 hrs and centrifuged to obtain plasma. These plasma samples were then diluted in potassium acetate buffer (pH 4.0) and assayed for GAA activity using the 4-methylumbeliferyl-α-glucose (4-MUG) fluorogenic substrate. The measured GAA activity for individual samples at each time point was normalized to the 0 hr and expressed as % of initial activity.
Moreover, since Myozyme® has a long plasma half-life (reported to be more than 3 hrs), there is a high probability that an appreciable amount of the enzyme remains in the circulation many hours after the infusion that would also be prone to inactivation.
Based on human plasma PK data, these concentrations are readily obtainable in the clinic.

[6] = system: cell lines derived from late-onset Pompe patients with the IVS 1 (−13 T>G) splicing defect; assay: GAA levels in cell lines derived from late-onset Pompe patients; type: cell-based, human; conditions: alone and in combination with hrGAA
[7] = rat, in vivo, po, 30 mg/kg

Compound: alglucosidase alfa [Lumizyme®]
Protein solubility ([1]; Arginine 100 mM, 1-DNJ-HCl 32 mg/mL): 201 mg/mL
Protein solubility ([1]; Arginine + Glutamic acid 50 mM + 50 mM, 1-DNJ-HCl 160 mg/mL): 242 mg/mL
Protein solubility ([1]; Gamma-cyclodextrin 10% (w/v), 1-DNJ-HCl 160 mg/mL): 114 mg/mL
Protein solubility ([1]; PEG400 5% (w/v), 1-DNJ-HCl 160 mg/mL): 158 mg/mL
Protein solubility ([1]; Proline 250 mM, 1-DNJ-HCl 160 mg/mL): 195 mg/mL
solubility of the protein ([1]; without the added excipients): about 80 mg/mL
rhGAA activity uptake, Biceps (GAA KO mice [2]): 56.0 nmol/mg/h
rhGAA activity uptake, Diaphragm (GAA KO mice [2]): 4.2 nmol/mg/h
rhGAA activity uptake, Gastrocnemius (GAA KO mice [2]): 2.0 nmol/mg/h
rhGAA activity uptake, Heart (GAA KO mice [2]): 1.9 nmol/mg/h
rhGAA activity uptake, Quadriceps (GAA KO mice [2]): 2.1 nmol/mg/h
rhGAA activity uptake, Skin (GAA KO mice [2]): 75 nmol/mg/h
rhGAA activity uptake, Soleus (GAA KO mice [2]): 2.7 nmol/mg/h
rhGAA activity uptake, Tongue (GAA KO mice [2]): 2.7 nmol/mg/h
rhGAA activity uptake, Triceps (GAA KO mice [2]): 88.0 nmol/mg/h

GAA thermostability (GAA's melting temperature) ([3]; 1, 10, 100 μM 1-DNJ-HCl, dose-dependent): increases GAA thermostability
rhGAA uptake in the heart and diaphragm (GAA KO mice [5]): increased
loss of rhGAA activity in whole blood (rhGAA (e.g., Myozyme®); 2.5 μM 1-DNJ-HCl, 6-hr time course): ~20%
increase of plasma half-life of rhGAA [7]: 2 fold
Compound: OC[C@H]1NC[C@H](O)[C@@H](O)[C@@H]1O [1-DNJ-HCl, 1-deoxynojirimycin hydrochloride]
stability of Myozyme® (heat required to denature) on addition of the ASSC ([3]; pH 7.4, 100 μM 1-DNJ-HCl, vs Myozyme® alone, hydrochloride): required significantly more heat to denature
Myozyme® tissue uptake (as a measure of GAA activity), effect of coadministration (GAA KO mice [4]): dose-dependent increase in Myozyme® uptake
effect on rhGAA enzyme inactivation in whole blood (rhGAA (e.g., Myozyme®); 50 μM 1-DNJ-HCl, Myozyme® 0.5 μM, up to 24 hrs, hydrochloride): stabilized rhGAA and prevented enzyme inactivation; also recorded: prevents rhGAA enzyme inactivation
stabilizing rhGAA in whole blood, concentration comparison (rhGAA (e.g., Myozyme®); 50 and 100 μM 1-DNJ-HCl, 6 hrs): best for stabilizing rhGAA and preventing enzyme inactivation
GAA levels [6]: increased GAA levels
